# Data reported in the supplement of paper PMC10065799, “High-throughput profiling of sequence recognition by tyrosine kinases and SH2 domains using bacterial peptide display” (eLife, 2023).
# Test system: c-Abl (mouse)
# Assay: phosphorylation enrichment, bacterial display (enrichment ratio); higher = better substrate or ligand; peptides without Tyr show the background
# 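Also: 11-residue human phosphosite peptides and single-mutation variants displayed on the E. coli surface, counted by deep sequencing, each peptide's frequency after selection divided by its frequency in the unselected input library; frequency after pTyr selection over input frequency; kinase dosed for 20-30% of maximal phosphorylation in three min.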
row,Sequence,phosphorylation enrichment
1,GLTSTYAGIRK [ROBO1_Y932],0.724
2,SPGGDYAAMGA [ERBB3_Y1276_G1271S],0.622
3,DTNIAYCLHPR [POMT1_Y581_W582C],0.753
4,GCVSKYSGVFS [TUBGCP6_Y1624],0.619
5,EADRKYEEVAR [TPM3_Y163],1.08
6,QRALLYEDTLY [UNC13D_Y56_A59T],0.819
7,IDDNEYAFLKA [HNF4A_Y286_YF],0.922
8,DESEDYRDTVV [CNNM3_Y456],0.897
9,FIGCIYLFLTK [GARS1_Y414_R412C_YF],0.748
10,HLRAGYIIPLQ [GAA_Y822],0.681
11,PVDVAYRHGYF [PLEC_Y2967_R2969H],1.4
12,MSNFAYVKREV [SCN1A_Y1694],0.516
13,HYGNNYRDVLQ [MACC1_Y803],0.438
14,PVDTYYDSTRG [DYNC2H1_Y2231_M2227V],0.953
15,ENEGTYVCIAT [ADAMTSL3_Y1365],0.852
16,LQPNNYQFCGG [CSF1R_Y969],2.74
17,KPMDTYYDSTR [DYNC2H1_Y2230],0.678

row,Sequence,phosphorylation enrichment
1,ADDSYYTVRSA [ZAP70_Y493_A495V],0.611
2,QRRLVYYEGGA [RYR1_Y245],0.728
3,CTTIHYSYMCN [TP53_Y234_N235S],0.627
4,MNLLGYRQVRS [CHST4_Y359_H361Q],0.679
5,KLFFHYDPKLC [INSR_Y457_N458D],0.948
6,RNDRVYQPLRD [CD3D_Y149_Q147R],0.689
7,FMLFQYLKQIE [RPAP3_Y569_D564Y_YF],1.07
8,FSLIHYAGIVV [MYH7_Y582_D587V],1.04
9,PVDGEYFTLQI [TP53_Y327_L323V],1.38
10,ILDEAYVMASV [EGFR_Y764],0.692
11,IDGLEYLHSQG [STK11_Y166],0.574
12,DGNIDYAEFAK [MCFD2_Y138_Y135N],0.757
13,YSSLGYPPPEG [ZSWIM4_Y87],0.66
14,ATPKGYETDAS [OTC_Y223_P225T],0.622
15,ECKLRYSRKEG [PTPN11_Y263_L262R],0.452
16,DGMADYSDPSY [CDC5L_Y459],0.859

# Target: FGFR1 (UniProt P11362)
# Sequence (P11362 whole entry, looked up): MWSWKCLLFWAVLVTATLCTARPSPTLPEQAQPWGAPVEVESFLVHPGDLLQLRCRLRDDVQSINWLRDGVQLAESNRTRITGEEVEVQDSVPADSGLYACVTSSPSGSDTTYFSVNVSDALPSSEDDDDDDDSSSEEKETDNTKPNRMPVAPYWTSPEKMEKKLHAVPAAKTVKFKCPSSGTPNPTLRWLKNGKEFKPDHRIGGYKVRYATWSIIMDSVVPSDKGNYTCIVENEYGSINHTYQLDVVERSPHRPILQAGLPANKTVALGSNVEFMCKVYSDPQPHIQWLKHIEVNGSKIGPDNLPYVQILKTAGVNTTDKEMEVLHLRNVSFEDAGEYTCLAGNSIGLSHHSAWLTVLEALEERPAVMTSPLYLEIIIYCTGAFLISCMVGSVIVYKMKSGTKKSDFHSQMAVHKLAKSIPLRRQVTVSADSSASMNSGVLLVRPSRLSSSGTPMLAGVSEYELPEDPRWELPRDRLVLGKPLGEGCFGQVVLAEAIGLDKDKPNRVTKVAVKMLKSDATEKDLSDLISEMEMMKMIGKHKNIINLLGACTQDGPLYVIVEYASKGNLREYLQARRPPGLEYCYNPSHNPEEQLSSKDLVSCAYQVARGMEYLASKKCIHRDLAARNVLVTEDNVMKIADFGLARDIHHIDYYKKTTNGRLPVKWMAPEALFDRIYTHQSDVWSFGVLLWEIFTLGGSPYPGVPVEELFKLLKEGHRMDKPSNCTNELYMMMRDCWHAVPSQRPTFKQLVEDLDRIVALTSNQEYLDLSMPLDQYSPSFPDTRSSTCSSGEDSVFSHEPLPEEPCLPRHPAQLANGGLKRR
# Assay: as above
row,Sequence,phosphorylation enrichment
1,GLTSTYAGIRK [ROBO1_Y932],0.342
2,SPGGDYAAMGA [ERBB3_Y1276_G1271S],0.705
3,DTNIAYCLHPR [POMT1_Y581_W582C],0.471
4,GCVSKYSGVFS [TUBGCP6_Y1624],0.321
5,EADRKYEEVAR [TPM3_Y163],0.637
6,QRALLYEDTLY [UNC13D_Y56_A59T],0.648
7,IDDNEYAFLKA [HNF4A_Y286_YF],1.44
8,DESEDYRDTVV [CNNM3_Y456],0.677
9,FIGCIYLFLTK [GARS1_Y414_R412C_YF],0.458
10,HLRAGYIIPLQ [GAA_Y822],0.367
11,PVDVAYRHGYF [PLEC_Y2967_R2969H],0.863
12,MSNFAYVKREV [SCN1A_Y1694],0.447
13,HYGNNYRDVLQ [MACC1_Y803],0.444
14,PVDTYYDSTRG [DYNC2H1_Y2231_M2227V],2.01
15,ENEGTYVCIAT [ADAMTSL3_Y1365],1.29
16,LQPNNYQFCGG [CSF1R_Y969],1.04
17,KPMDTYYDSTR [DYNC2H1_Y2230],0.998

row,Sequence,phosphorylation enrichment
1,ADDSYYTVRSA [ZAP70_Y493_A495V],7.54
2,QRRLVYYEGGA [RYR1_Y245],0.497
3,CTTIHYSYMCN [TP53_Y234_N235S],0.667
4,MNLLGYRQVRS [CHST4_Y359_H361Q],0.399
5,KLFFHYDPKLC [INSR_Y457_N458D],0.423
6,RNDRVYQPLRD [CD3D_Y149_Q147R],0.41
7,FMLFQYLKQIE [RPAP3_Y569_D564Y_YF],0.468
8,FSLIHYAGIVV [MYH7_Y582_D587V],0.482
9,PVDGEYFTLQI [TP53_Y327_L323V],11.4
10,ILDEAYVMASV [EGFR_Y764],0.641
11,IDGLEYLHSQG [STK11_Y166],0.445
12,DGNIDYAEFAK [MCFD2_Y138_Y135N],0.595
13,YSSLGYPPPEG [ZSWIM4_Y87],1.06
14,ATPKGYETDAS [OTC_Y223_P225T],0.54
15,ECKLRYSRKEG [PTPN11_Y263_L262R],0.484
16,DGMADYSDPSY [CDC5L_Y459],0.611

# Target: Jak2 (UniProt O60674)
# Sequence (O60674 whole entry, looked up): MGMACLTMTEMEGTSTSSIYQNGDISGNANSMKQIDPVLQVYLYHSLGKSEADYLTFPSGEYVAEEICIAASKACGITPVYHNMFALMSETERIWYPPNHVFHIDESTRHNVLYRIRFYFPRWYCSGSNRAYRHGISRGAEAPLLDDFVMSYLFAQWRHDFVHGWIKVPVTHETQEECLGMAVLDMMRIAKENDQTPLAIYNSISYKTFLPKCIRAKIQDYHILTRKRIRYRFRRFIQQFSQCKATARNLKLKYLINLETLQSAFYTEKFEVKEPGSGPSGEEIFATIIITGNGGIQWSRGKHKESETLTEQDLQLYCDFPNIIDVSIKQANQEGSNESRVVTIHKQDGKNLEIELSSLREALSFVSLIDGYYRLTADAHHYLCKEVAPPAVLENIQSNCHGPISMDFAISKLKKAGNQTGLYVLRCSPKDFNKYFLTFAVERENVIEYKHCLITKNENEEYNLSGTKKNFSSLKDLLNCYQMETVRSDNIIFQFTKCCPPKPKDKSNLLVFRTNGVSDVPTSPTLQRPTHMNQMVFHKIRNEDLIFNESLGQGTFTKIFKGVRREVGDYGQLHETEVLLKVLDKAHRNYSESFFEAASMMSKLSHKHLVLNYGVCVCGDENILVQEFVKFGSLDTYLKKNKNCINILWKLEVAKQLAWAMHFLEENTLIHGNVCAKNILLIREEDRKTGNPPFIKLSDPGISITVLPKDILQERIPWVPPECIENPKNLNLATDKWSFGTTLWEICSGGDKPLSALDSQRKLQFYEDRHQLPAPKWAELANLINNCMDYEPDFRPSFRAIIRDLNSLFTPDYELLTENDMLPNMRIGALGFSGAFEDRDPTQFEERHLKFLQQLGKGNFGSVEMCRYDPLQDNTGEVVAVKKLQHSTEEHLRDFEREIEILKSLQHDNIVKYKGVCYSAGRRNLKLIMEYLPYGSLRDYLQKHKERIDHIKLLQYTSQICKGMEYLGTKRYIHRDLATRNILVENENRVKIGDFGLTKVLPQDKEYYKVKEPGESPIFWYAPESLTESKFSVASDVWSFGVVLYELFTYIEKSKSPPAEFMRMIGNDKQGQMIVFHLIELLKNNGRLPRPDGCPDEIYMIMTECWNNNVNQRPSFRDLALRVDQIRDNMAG
# Assay: as above
row,Sequence,phosphorylation enrichment
1,GLTSTYAGIRK [ROBO1_Y932],0.548
2,SPGGDYAAMGA [ERBB3_Y1276_G1271S],0.708
3,DTNIAYCLHPR [POMT1_Y581_W582C],0.754
4,GCVSKYSGVFS [TUBGCP6_Y1624],0.81
5,EADRKYEEVAR [TPM3_Y163],1.19
6,QRALLYEDTLY [UNC13D_Y56_A59T],0.942
7,IDDNEYAFLKA [HNF4A_Y286_YF],1.13
8,DESEDYRDTVV [CNNM3_Y456],1.4
9,FIGCIYLFLTK [GARS1_Y414_R412C_YF],0.792
10,HLRAGYIIPLQ [GAA_Y822],0.671
11,PVDVAYRHGYF [PLEC_Y2967_R2969H],1.9
12,MSNFAYVKREV [SCN1A_Y1694],0.651
13,HYGNNYRDVLQ [MACC1_Y803],0.661
14,PVDTYYDSTRG [DYNC2H1_Y2231_M2227V],0.909
15,ENEGTYVCIAT [ADAMTSL3_Y1365],1.1
16,LQPNNYQFCGG [CSF1R_Y969],1.24
17,KPMDTYYDSTR [DYNC2H1_Y2230],0.545

row,Sequence,phosphorylation enrichment
1,ADDSYYTVRSA [ZAP70_Y493_A495V],1.47
2,QRRLVYYEGGA [RYR1_Y245],0.682
3,CTTIHYSYMCN [TP53_Y234_N235S],0.663
4,MNLLGYRQVRS [CHST4_Y359_H361Q],0.566
5,KLFFHYDPKLC [INSR_Y457_N458D],0.961
6,RNDRVYQPLRD [CD3D_Y149_Q147R],0.509
7,FMLFQYLKQIE [RPAP3_Y569_D564Y_YF],1.27
8,FSLIHYAGIVV [MYH7_Y582_D587V],1.3
9,PVDGEYFTLQI [TP53_Y327_L323V],3.14
10,ILDEAYVMASV [EGFR_Y764],1.07
11,IDGLEYLHSQG [STK11_Y166],0.796
12,DGNIDYAEFAK [MCFD2_Y138_Y135N],0.987
13,YSSLGYPPPEG [ZSWIM4_Y87],0.568
14,ATPKGYETDAS [OTC_Y223_P225T],0.667
15,ECKLRYSRKEG [PTPN11_Y263_L262R],0.378
16,DGMADYSDPSY [CDC5L_Y459],1.47

# Test system: c-Src
# Assay: as above
row,Sequence,phosphorylation enrichment
1,GLTSTYAGIRK [ROBO1_Y932],1.52
2,SPGGDYAAMGA [ERBB3_Y1276_G1271S],0.445
3,DTNIAYCLHPR [POMT1_Y581_W582C],0.568
4,GCVSKYSGVFS [TUBGCP6_Y1624],0.463
5,EADRKYEEVAR [TPM3_Y163],0.625
6,QRALLYEDTLY [UNC13D_Y56_A59T],3.24
7,IDDNEYAFLKA [HNF4A_Y286_YF],0.728
8,DESEDYRDTVV [CNNM3_Y456],0.662
9,FIGCIYLFLTK [GARS1_Y414_R412C_YF],0.314
10,HLRAGYIIPLQ [GAA_Y822],0.327
11,PVDVAYRHGYF [PLEC_Y2967_R2969H],0.905
12,MSNFAYVKREV [SCN1A_Y1694],0.388
13,HYGNNYRDVLQ [MACC1_Y803],0.652
14,PVDTYYDSTRG [DYNC2H1_Y2231_M2227V],0.955
15,ENEGTYVCIAT [ADAMTSL3_Y1365],1.62
16,LQPNNYQFCGG [CSF1R_Y969],0.632
17,KPMDTYYDSTR [DYNC2H1_Y2230],0.7

row,Sequence,phosphorylation enrichment
1,ADDSYYTVRSA [ZAP70_Y493_A495V],2.45
2,QRRLVYYEGGA [RYR1_Y245],0.583
3,CTTIHYSYMCN [TP53_Y234_N235S],0.526
4,MNLLGYRQVRS [CHST4_Y359_H361Q],0.411
5,KLFFHYDPKLC [INSR_Y457_N458D],0.361
6,RNDRVYQPLRD [CD3D_Y149_Q147R],1.55
7,FMLFQYLKQIE [RPAP3_Y569_D564Y_YF],0.498
8,FSLIHYAGIVV [MYH7_Y582_D587V],0.621
9,PVDGEYFTLQI [TP53_Y327_L323V],3.58
10,ILDEAYVMASV [EGFR_Y764],0.612
11,IDGLEYLHSQG [STK11_Y166],0.417
12,DGNIDYAEFAK [MCFD2_Y138_Y135N],0.646
13,YSSLGYPPPEG [ZSWIM4_Y87],1.22
14,ATPKGYETDAS [OTC_Y223_P225T],0.524
15,ECKLRYSRKEG [PTPN11_Y263_L262R],0.423
16,DGMADYSDPSY [CDC5L_Y459],0.538
